Experimental data from the domain aggregation screens of Martell et al. (2025).

assay: soluble fraction after stress (log2 fold change); higher = more stays soluble; pooled small domains, quantitative proteomics; details: stress: 50 degC
Method in brief: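 Quantitative proteomics served as the high-throughput read-out for pooled custom libraries of small protein domains. Each was stressed at 50°C. Aggregation propensity is expressed as the base-two log fold change in soluble protein after stress. A higher value means a larger share of the protein remains in solution.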

| Sequence | soluble fraction (log2) |
| --- | --- |
| HMTLHDLFPQAVEFVSEKEMISTAELQRKLMISYNSAAKIIDQLLHVDFIQKSESAGKYSVLIK | -2.31 |
| HMTLNTQLFTWKKGVRVGEDDQGNIYYRTKDDKRRWVIFTGETEATKVSPDWHGWLHRTWATPPNK | -2.39 |
| HMTLPGQDFIRASQLKELIAKYDKQYYEEGVSDISDAEYDRLYEEYLEFENKYPELKDMADAPTKRV | 0.332 |
| HMTLREQISALIKQGKLTQAKLARETGVNGGALSAWINGKYTGNVETVEEPIKHWMALNERK | 0.373 |
| HMTLSVRQRMSQIINKIDVSNFTDFTKLFDINEGRLGVAVTFLAILELLKDTMIDVIQNEEFAPLHIKVSS | -0.177 |
| HMTMIIQLDKNITQEQRQFLVEELNRLSISPNFVSTQFTNYIVGIPKKEFDIRLIGNLPGIADIHFV | -0.183 |
| HMTMKVTADILNMRSEASTNSDIVTKLKKDDELKVIEETKDDDGVTWVKVDFNGQVGFVSKEFLG | 0.284 |
| HMTMLLEYNVSRSSKWMNKTIMDAEIPDDILIVMIKRNGQVIVPKGSTEILENDILVLSGNNLNEVALG | -2.33 |
| HMTMNYYDILSIKRDATLEEIQKAYKEKSFQFHPDFNKGISDDSMFRIIKEAYETLSDTEKRNQYDASLNK | 0.232 |
| HMTMQTAEQESRLEQKLIDLSVGIDRFEGYSRPHGQLIASIADRIGTRLGMAAHDRFYMQQAAL | 0.107 |
| HMTNADRFIGEEAMVIKKIDDINNDGQVKIAGQVWSAVSEDKSPLEEGTIVKVIAIRGVKLVVEPVS | 0.0662 |
| HMTNALDMMKTMDSDAYTKYQKISKESSNEDRQLNELKYITNWYAGAVKKNPSMVDDYEKQKEADS | 0.159 |
| HMTNELTEIFNSIRLTKKQKELLQSNYLSLRETYFLQGKTAFNLKFKNIAGLGKSTKKVLLEFFEESIE | -1.83 |
| HMTNIDIEKSIKNTITANYDDVLNYHNEDDNKTFASGDSRYSFDYDEKTKTLIVFTNSKVDAVFVDGIKKK | -0.0966 |
| HMTNISDYILEEYYKNVYPNDLNTKRIVIPNKYEEYAGKYTYITIARMVTYEHDAKKALKVLHQQAT | -0.287 |
| HMTNKYSSLVIGTVKTIMEEDQYKNLMGPPLKKEIIKQVDKFTNALPIEFDQNDKDFYVKKILINL | -0.304 |
| HMTNLKALRESKGVSQQTVADYLGITRQAYGNYETGKRQADYAALLRLAAFFGVSVDALLQP | -0.299 |
| HMTNNDIIRRVRYLFNFSDKQVIELFKLANETVSIEHVSGWLKKEEDPTLIEISDRDLAVFLNGLII | 0.237 |
| HMTNQEFNEVFKLLLAAYPNTKDKESVATIYFLTIANELTKKEFAEAVVKILKTRKSGFIPQPAEILEVAK | -0.67 |
| HMTNSAGIERFLASGAIDGVGPAMARRIVEHFGTEALRIIESVPHRLREISGIGPKTAEKIASSYMRQ | -0.689 |
| HMTNTDALINRAAKVVEEINPDKNTGRVSIDGDLWRAKSSSGELIEQNKQVIVISIESTIVTVKI | -0.343 |
| HMTNTWNNIVERNDLFFKKFTNTPFNGKIETYWPNGNLKETGIITDGKKDNLWEYYYENGNPKEVEF | -0.397 |
| HMTNVFSIIGKKALVIKDIDPIHSSGQIKLNGEVWSAETENDEIIKEGSEVEVLKINGVKAIVKLV | -0.107 |

| Sequence | soluble fraction (log2) |
| --- | --- |
| HMTNVIPKAMAPFNGSTIIADGIKNIKDHIDNLYITVGYKGATLSEHVINKGVSAVFNTTGKGNAWWVYN | 0.0606 |
| HMTNVLSEQESKLLERMNKAGLNAEITVKKAAQILNLSESAARNVLNRLVGKGYLTVDTSRLPFLFQR | -0.0793 |
| HMTNVVSKNKAKEIAMNIINDTVLQGQTAATFKEIVKANGVYVVKIEIQGQEYTSYITKDGKIVFPYGVEV | -0.451 |
| HMTNYSFIVNENFNNKRIDQVVANHYPKISRTKVNKIIKNNLLKLNGSTFNDPSAKVKLGDQIEFENL | 0.389 |
| HMTPAKQVSAKAERWIDQLGSSDWEKREEAAAELKKLGGAAKSALEKALKNADPEVASKAEELLEALES | 0.0311 |
| HMTPATVVIPKVAGQTVAEAKETLKNANFEIGEEKDESSDTVEEGRVIRTDPESGTNRKEGTKINLIVSS | -0.0325 |
| HMTPFVINVDRHGAVIINEKTVDIDEAVVLARQERSQGKSILLAGDKKAPYEAIIRVLDALKQAG | -0.185 |
| HMTPNATWQDDAQNLLRDLIQHQPVLVQISAAKRLRDQAEQISRITGGETVTREHVEAAGHALGMGVT | 0.0847 |
| HMTPNRDDEHLQSLRDYYASNRRIPSLQRIAALLGFSSRSAAVKLMGRLADEGFVERTVDDDAWIPGSRFF | -0.808 |
| HMTPQDYEYLRKLLKDQSGLDLSVDKQYLLESRLVPLSRKAGLAGIPELVQKMKAGSASLTAQVVEAMTT | 0.00429 |
| HMTPVFGEEETVLQAAVRGIISDTDQWTMEAEAKSMLNQLGFSDYEEKMAHMSGGQKKRVALVNALLTP | 0.0128 |
| HMTQDFEPGGQVFSRGEWLTIIRVNKSNGAVSSVTTPNYSFLGYSGTMKVTPDRITDYKAPSAEEAAVAS | -0.281 |
| HMTQGRVTGDGVNVRSQPNTDSAILTRVSTGKVVELISLKDNWYNVVVNGTKGYIRADYVSPYDG | -0.0101 |
| HMTQLPEVPVERGMVLEEVQSGWVGAVTRVEKSGGMHVVALEDRRGKSRSFRLGFGFLLEGQPIRLMPPAP | -1.42 |
| HMTRAETPMAFIRAMVEAYTERGLDPNQALRKAQITPSQLKSTNARVTTLQMEWMSETAMREL | 0.0088 |
| HMTRDAQLAALERLMDDPSPVVRKAVLKGVQAAGTEGLLWLQQLSKNQTLGPYALALLTELR | -0.412 |
| HMTRNGTVTFFNHDKGYGFIKDVLTQESVFVHINSLSEPINEQNKVSFEIEMGPRGSNAINVKLI | -1.97 |
| HMTRTEYMAQLEKYLKKLPHKEFQEAITFFNEYFDEAGPEKETAIMEELGSPKEAASELITNILNRHI | -0.149 |
| HMTRTISKVAKELAINIETVRFYERRGLIEQPPKPELGYRHYPDETVNRIRFIKRAQELGFTLEEIANLLS | -1.75 |
| HMTRVDALDQLAAIRFSSHIFAEDQDLRMVVVDGQRIGEGDIVRDEIRLEQITETGVIFEYQGERFPIDV | -1.42 |
| HMTRYQHLAMLLEKRIAQGLYRNGERLPSVRSLSAEHGVSISTVQQAYYLLEQKQLIIPQSRSGYYVAPH | -4.42 |
| HMTSEVPVGSNVRIRASTLAGERDFEGTMLPPAGEGLTTLKLVNGYNLSYPSKDVLDIEFLGGAGE | 0.057 |
| HMTSHPTHTILDGKVHVFMRDGSPFWWGGFHFKGKYLRTSTKQKNLDSAKTIAQQWYFQKQTEIASGE | -2.67 |

| Sequence | soluble fraction (log2) |
| --- | --- |
| HMTSKVTVLAVNGRITVSGKEQDETVSVYDTGGRLLYQGESDVINVPRKAMYIVTVSRKSYKVIV | -0.941 |
| HMTSLAGIERFLASGAIAGVGEAMAHRLVQKFGKETLEIIEKKPSRLTEVAGVGKKTAAKIHASYMEK | -0.106 |
| HMTSLGLEGLVNTTAIATSDLRPSGWALAGERKIFVVSEGEFIDNGDKIRILTVDGNRIVVRKETNK | -0.051 |
| HMTSLTSDEEQIINVLRAEESVYINALATKSKIPLQKLLGLLIQLEFKGLIHSLPGSHYKIV | -0.138 |
| HMTSNIIIVPNVVGMTKEQATAALAAAGLNIKLSGVETTDTAAVAVKQKPSANTKVEEGSVVTVEFDLK | 0.0533 |
| HMTSPKSRIVSALLASPSRPEELAMRLGEDILTLMRTLTDFEASGIIQRLPDGRYTPTREYHLGLVDK | 0.0852 |
| HMTSPRRLYALIVEHVGKDGVMHRSDVENVLAKVESEMDVDDLLDQLEINGTIIRRQDGTWQLL | -0.197 |
| HMTSRFITTEEGTLYVDADGRKVSGWQTIDGSRYYFDEHGIRQSGTIEVNGETYVLDEDGVL | 0.0747 |
| HMTSRWEIGYNVAKKYYDEHGNLDVERAVYDNFELKKWLNTQRYKNSAGTLAEKYKIKLDELGMNWER | 0.0505 |
| HMTSSQLYLIEEDMEGERLDAFLAEVIADLSRTAIKDLISNGRVLVDGQARKPSYRVKEGEQVLIHVPEAR | -0.0195 |
| HMTSVFQNSDGTWGHLTKTVNPLIYTIEYGRRTGFSSREEAEESYQRSLTSYQDQLSKLKKERD | 0.314 |
| HMTSVPGTVVTNANLRGGPGTNYPIVGKAPAGTTVNVVESTADRTWYYLDTGSWIAAFLVKLS | 0.152 |
| HMTSVRVPVKKEIWFWAIKESQRDLNEILARFPKMDKWINQEENPTFNQLEKVAKFLRVPFGYMFLDKPPK | -0.931 |
| HMTTETGTVKWFNEGKGFGFIAPDGGGKDLFAHFKEIQGSGFKTLTENQRVQFEVTQGQKGPQASNIRTL | 0.243 |
| HMTTHEQVAILRRELNGLVGAWHHRTGQAHGVTHSKLRKELGGPPAAVASAAQLSARIEKIRQWAT | -0.635 |
| HMTTIAQMTGPQRAAVILLVLGEDHGRTIWQEFDDDEIRIITRAMAELGTVDADEVERLMLDFVGKLSS | -2.58 |
| HMTTIAQNISNYRTRANMTQQQVADKLSVSHHTVSKWELGINTPSVEDMQKLAQVFGVTITELVVD | -0.239 |
| HMTTIHVDPEKISKIIGPGGKTIKKIVEETGAKIDIEEDGRVYIAAVNSEEAAKAIDMINGI | 0.257 |
| HMTTIPAGRQQYILSLIRREGTVTVSRLAQELEVSELTIRRDLDQMAARNLVERTHGGATERR | -0.138 |
| HMTTKEEAAYQAIRSAIIDGELKPGQSVTIRDLASRFDLGRTPITDAMKHLALDGWLETTTGVGTRV | -0.106 |
| HMTTLAADFNSDGRVDIGDLSILAGNWGKSRTNEVDFNKYGDADYNGRIDIIDLSILATQFGQTDNSN | -0.0889 |
| HMTTLDTVARQLRDRIREQLDPTGEMSDESLLRTIEEAVYRYSSSGHVLTANEKETVIRRIFHSFR | 0.0252 |
| HMTTMNSADLIKELEKAGWTLRGVKGSHHIYTHPARGGHLSVPHPKKDLGAGLARQLRKQAGL | 0.125 |
